{
  "source": "patent US20200231691A1",
  "about": "(Hoffmann-La Roche, published 2020)",
  "molecular_target": "T1, biotinylated monomeric human OX40 antigen Fc(kih) fusion molecule (human, UniProt P0DOX5 223-449 = IgG part, biotinylated at the C-terminal Avi tag (BirA))",
  "T1 construct": "also called biotinylated human OX40; hu OX40",
  "assay": "ELISA, biotinylated human OX40 on neutravidin plates, Fab supernatants, anti-Flag/HRP",
  "protocol": "Selections were carried out over 3 or 4 rounds using constant antigen concentrations of 100 nM. […] In rounds 2 and 4, in order to avoid enrichment of binders to neutravidin, capture of antigen: phage complexes was performed by addition of 5.4×10⁷ streptavidin-coated magnetic beads. […] Fab-containing bacterial supernatants were added and binding Fabs were detected via their Flag-tags using an anti-Flag/HRP secondary antibody. […] They were bacterially expressed in a 0.5 liter culture volume, affinity purified and further characterized by SPR-analysis using BioRad's ProteOn XPR36 biosensor.",
  "data": [
    {"binder": "anti-OX40 clone 20B7 (phage-derived Fab) (Fab, V domains shown, Tested as a Flag-tagged Fab in bacterial supernatant (DP88-4 library); also called OX40 (20B7)) VH: QVQLVQSGAEVKKPGSSVKVSCKASGGTFSSYAISWVRQAPGQGLEWMGGIIPIFGTANYAQKFQGRVTITADKSTSTAYMELSSLRSEDTAVYYCARVNYPYSYWGDFDYWGQGTTVTVSS VL: DIQMTQSPSTLSASVGDRVTITCRASQSISSWLAWYQQKPGKAPKLLIYDASSLESGVPSRFSGSGSGTEFTLTISSLQPDDFATYYCQQYQAFSLTFGQGTKVEIK", "values": [
      {"measurement": "binding result", "value": "binds"}
    ]},
    {"binder": "anti-OX40 clone 49B4 (phage-derived Fab) (Fab, V domains shown, Tested as a Flag-tagged Fab in bacterial supernatant (DP88-4 library); also called OX40 (49B4)) VH: QVQLVQSGAEVKKPGSSVKVSCKASGGTFSSYAISWVRQAPGQGLEWMGGIIPIFGTANYAQKFQGRVTITADKSTSTAYMELSSLRSEDTAVYYCAREYYRGPYDYWGQGTTVTVSS VL: DIQMTQSPSTLSASVGDRVTITCRASQSISSWLAWYQQKPGKAPKLLIYDASSLESGVPSRFSGSGSGTEFTLTISSLQPDDFATYYCQQYSSQPYTFGQGTKVEIK", "values": [
      {"measurement": "binding result", "value": "binds"}
    ]},
    {"binder": "anti-OX40 clone 17A9 (phage-derived Fab) (Fab, V domains shown, Tested as a Flag-tagged Fab in bacterial supernatant (lambda-DP47 library); also called OX40 (17A9)) VH: not shown VL: SSELTQDPAVSVALGQTVRITCQGDSLRSYYASWYQQKPGQAPVLVIYGKNNRPSGIPDRFSGSSSGNTASLTITGAQAEDEADYYCNSRVMPHNRVFGGGTKLTV", "values": [
      {"measurement": "binding result", "value": "binds"}
    ]},
    {"binder": "anti-OX40 clone 1G4 (phage-derived Fab) (Fab, V domains shown, Tested as a Flag-tagged Fab in bacterial supernatant (DP88-4 library); also called OX40 (1G4)) VH: QVQLVQSGAEVKKPGSSVKVSCKASGGTFSSYAISWVRQAPGQGLEWMGGIIPIFGTANYAQKFQGRVTITADKSTSTAYMELSSLRSEDTAVYYCAREYGSMDYWGQGTTVTVSS VL: not shown", "values": [
      {"measurement": "binding result", "value": "binds"}
    ]}
  ]
}
